Source: IntAct's records for PubMed 35512704

B1: Speckle-type POZ protein (Homo sapiens), O43791 (parent)
chain: MSRVPSPPPPAEMSSGPVAESWCYTQIKVVKFSYMWTINNFSFCREEMGEVIKSSTFSSGANDKLKWCLRVNPKGLDEESKDYLSLYLLLVSCPKSEVRAKFKFSILNAKGEETKAMESQRAYRFVQGKDWGFKKFIRRDFLLDEANGLLPDDKLTLFCEVSVVQDSVNISGQNTMNMVKVPECRLADELGGLWENSRFTDCCLCVAGQEFQAHKAILAARSPVFSAMFEHEMEESKKNRVEINDVEPEVFKEMMCFIYTGKAPNLDKMADDLLAAADKYALERLKVMCEDALCSNLSVENAAEILILADLHSADQLKTQAVDFINYHASDVLETSGWKSMVVSHPHLVAEAYRSLASAQCPFLGPPRKRLKQS

Variants of: B1
Conditions: with pk3cg_human PIK3CG

effect of a mutation on the interaction | Variant
with no effect | F133V

Variants of: B1
Conditions: with p85b_human PIK3R2, O00459

effect of a mutation on the interaction | Variant
with no effect | F133V

Variants of: B1
Conditions: with dpod1_human POLD1, P28340

effect of a mutation on the interaction | Variant
with no effect | F133V

Variants of: B1
Conditions: with dpoe1_human POLE

effect of a mutation on the interaction | Variant
with no effect | F133V

Variants of: B1
Conditions: with ppard_human PPARD

effect of a mutation on the interaction | Variant
with no effect | F133V

Variants of: B1
Conditions: with prdm1_human PRDM1, O75626

effect of a mutation on the interaction | Variant
with no effect | F133V

Variants of: B1
Conditions: with prex2_human PREX2, Q70Z35

effect of a mutation on the interaction | Variant
with no effect | F133V

Variants of: B1
Conditions: with aapk2_human PRKAA2, P54646

effect of a mutation on the interaction | Variant
with no effect | F133V

Variants of: B1
Conditions: with prss8_human PRSS8, Q16651

effect of a mutation on the interaction | Variant
with no effect | F133V

Variants of: B1
Conditions: with ptk6_human PTK6, Q13882

effect of a mutation on the interaction | Variant
with no effect | F133V

Variants of: B1
Conditions: with tf65_human RELA

effect of a mutation on the interaction | Variant
with no effect | F133V

Variants of: B1
Conditions: with rictr_human RICTOR

effect of a mutation on the interaction | Variant
with no effect | F133V

Variants of: B1
Conditions: with rnf43_human RNF43, Q68DV7

effect of a mutation on the interaction | Variant
with no effect | F133V

Variants of: B1
Conditions: with ros1_human ROS1, P08922

effect of a mutation on the interaction | Variant
with no effect | F133V

Variants of: B1
Conditions: with rl11_human RPL11, P62913

effect of a mutation on the interaction | Variant
with no effect | F133V

Variants of: B1
Conditions: with rl5_human RPL5, P46777

effect of a mutation on the interaction | Variant
with no effect | F133V

Variants of: B1
Conditions: with rs15_human RPS15, P62841

effect of a mutation on the interaction | Variant
with no effect | F133V

Variants of: B1
Conditions: with rxra_human RXRA

effect of a mutation on the interaction | Variant
with no effect | F133V

Variants of: B1
Conditions: with sdha_human SDHA

effect of a mutation on the interaction | Variant
with no effect | F133V

Variants of: B1
Conditions: with setbp_human SETBP1, Q9Y6X0
setbp_human SETBP1, Q9Y6X0, sequence (Q9Y6X0 whole entry): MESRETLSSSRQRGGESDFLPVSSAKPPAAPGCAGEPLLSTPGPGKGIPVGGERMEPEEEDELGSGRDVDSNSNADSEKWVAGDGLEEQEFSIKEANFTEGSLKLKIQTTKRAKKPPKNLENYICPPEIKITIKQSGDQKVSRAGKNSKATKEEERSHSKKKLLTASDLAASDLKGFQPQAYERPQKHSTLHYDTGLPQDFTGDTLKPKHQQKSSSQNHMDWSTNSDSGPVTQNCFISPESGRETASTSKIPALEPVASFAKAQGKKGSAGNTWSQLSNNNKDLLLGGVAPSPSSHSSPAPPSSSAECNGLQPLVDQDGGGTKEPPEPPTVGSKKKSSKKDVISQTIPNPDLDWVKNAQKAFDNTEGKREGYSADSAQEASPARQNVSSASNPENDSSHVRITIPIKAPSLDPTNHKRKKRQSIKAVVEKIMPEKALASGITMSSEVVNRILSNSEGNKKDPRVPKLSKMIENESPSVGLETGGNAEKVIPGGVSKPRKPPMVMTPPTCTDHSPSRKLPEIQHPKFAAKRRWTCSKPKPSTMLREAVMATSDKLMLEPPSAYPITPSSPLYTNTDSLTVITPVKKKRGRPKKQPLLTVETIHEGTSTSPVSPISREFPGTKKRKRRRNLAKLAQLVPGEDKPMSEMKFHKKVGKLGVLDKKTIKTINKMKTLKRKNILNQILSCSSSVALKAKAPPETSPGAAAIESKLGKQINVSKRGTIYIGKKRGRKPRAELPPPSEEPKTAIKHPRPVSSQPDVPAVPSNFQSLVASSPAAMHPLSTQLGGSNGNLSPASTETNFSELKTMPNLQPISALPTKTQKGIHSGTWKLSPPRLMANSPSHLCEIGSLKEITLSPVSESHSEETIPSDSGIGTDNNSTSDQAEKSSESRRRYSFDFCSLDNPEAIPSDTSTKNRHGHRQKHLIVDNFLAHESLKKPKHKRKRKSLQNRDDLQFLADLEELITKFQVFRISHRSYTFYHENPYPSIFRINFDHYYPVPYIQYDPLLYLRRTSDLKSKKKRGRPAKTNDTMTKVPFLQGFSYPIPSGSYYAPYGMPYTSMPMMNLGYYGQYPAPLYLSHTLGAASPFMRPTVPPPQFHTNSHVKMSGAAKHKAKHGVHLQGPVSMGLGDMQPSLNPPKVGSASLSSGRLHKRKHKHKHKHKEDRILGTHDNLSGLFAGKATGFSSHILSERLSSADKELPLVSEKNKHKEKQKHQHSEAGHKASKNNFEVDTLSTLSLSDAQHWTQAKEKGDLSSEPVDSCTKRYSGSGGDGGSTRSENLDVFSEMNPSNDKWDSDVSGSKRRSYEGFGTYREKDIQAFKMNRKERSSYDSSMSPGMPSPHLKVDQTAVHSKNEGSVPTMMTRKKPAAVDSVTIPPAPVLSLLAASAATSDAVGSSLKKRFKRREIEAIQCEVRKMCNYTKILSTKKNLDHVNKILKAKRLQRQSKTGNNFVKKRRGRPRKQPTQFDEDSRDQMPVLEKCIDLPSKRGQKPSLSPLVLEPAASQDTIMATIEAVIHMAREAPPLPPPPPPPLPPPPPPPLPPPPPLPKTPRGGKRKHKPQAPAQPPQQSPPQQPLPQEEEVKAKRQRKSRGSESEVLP

effect of a mutation on the interaction | Variant
with no effect | F133V

Variants of: B1
Conditions: with setb1_human SETDB1, Q15047

effect of a mutation on the interaction | Variant
with no effect | F133V

Variants of: B1
Conditions: with skp2_human SKP2, Q13309

effect of a mutation on the interaction | Variant
with no effect | F133V

Variants of: B1
Conditions: with xct_human SLC7A11, Q9UPY5

effect of a mutation on the interaction | Variant
with no effect | F133V

Variants of: B1
Conditions: with smad1_human SMAD1, Q15797

effect of a mutation on the interaction | Variant
with no effect | F133V

Variants of: B1
Conditions: with smca4_human SMARCA4, P51532

effect of a mutation on the interaction | Variant
with no effect | F133V

Variants of: B1
Conditions: with snf5_human SMARCB1, Q12824

effect of a mutation on the interaction | Variant
with no effect | F133V

Variants of: B1
Conditions: with smo_human SMO

effect of a mutation on the interaction | Variant
with no effect | F133V

Variants of: B1
Conditions: with smuf1_human SMURF1, Q9HCE7

effect of a mutation on the interaction | Variant
with no effect | F133V

Variants of: B1
Conditions: with socs1_human SOCS1, O15524

effect of a mutation on the interaction | Variant
with no effect | F133V

Variants of: B1
Conditions: with sox10_human SOX10, P56693
sox10_human SOX10, P56693, sequence (P56693 whole entry): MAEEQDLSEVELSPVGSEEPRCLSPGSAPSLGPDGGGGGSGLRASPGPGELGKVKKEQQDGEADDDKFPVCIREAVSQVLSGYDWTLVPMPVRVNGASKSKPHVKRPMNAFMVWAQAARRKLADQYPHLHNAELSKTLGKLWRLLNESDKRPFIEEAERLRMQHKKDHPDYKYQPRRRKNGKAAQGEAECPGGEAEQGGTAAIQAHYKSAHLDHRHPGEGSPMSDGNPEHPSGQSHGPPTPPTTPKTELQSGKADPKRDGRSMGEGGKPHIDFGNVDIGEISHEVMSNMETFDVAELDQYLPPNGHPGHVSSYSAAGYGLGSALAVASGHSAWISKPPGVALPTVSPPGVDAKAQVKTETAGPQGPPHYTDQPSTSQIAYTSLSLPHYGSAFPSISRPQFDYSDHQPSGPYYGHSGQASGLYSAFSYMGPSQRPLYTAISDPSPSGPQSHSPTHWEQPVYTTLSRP

effect of a mutation on the interaction | Variant
with no effect | F133V

Variants of: B1
Conditions: with sox2_human SOX2, P48431

effect of a mutation on the interaction | Variant
with no effect | F133V

Variants of: B1
Conditions: with src_human SRC

effect of a mutation on the interaction | Variant
with no effect | F133V

Variants of: B1
Conditions: with whr1_human WHR1, P49842
whr1_human WHR1, P49842, sequence (P49842 whole entry): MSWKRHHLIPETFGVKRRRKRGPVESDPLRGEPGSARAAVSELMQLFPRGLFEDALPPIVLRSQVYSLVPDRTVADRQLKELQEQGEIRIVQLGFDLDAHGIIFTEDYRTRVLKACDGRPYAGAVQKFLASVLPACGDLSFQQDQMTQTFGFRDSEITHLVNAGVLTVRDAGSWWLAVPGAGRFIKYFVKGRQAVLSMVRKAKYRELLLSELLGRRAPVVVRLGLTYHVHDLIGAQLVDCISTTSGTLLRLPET

effect of a mutation on the interaction | Variant
with no effect | F133V

Variants of: B1
Conditions: with stk38_human STK38, Q15208

effect of a mutation on the interaction | Variant
with no effect | F133V

Variants of: B1
Conditions: with eloc_human ELOC

effect of a mutation on the interaction | Variant
with no effect | F133V

Variants of: B1
Conditions: with tfe2_human TCF3, P15923

effect of a mutation on the interaction | Variant
with no effect | F133V

Variants of: B1
Conditions: with tead1_human TEAD1, P28347
tead1_human TEAD1, P28347, sequence (P28347 whole entry): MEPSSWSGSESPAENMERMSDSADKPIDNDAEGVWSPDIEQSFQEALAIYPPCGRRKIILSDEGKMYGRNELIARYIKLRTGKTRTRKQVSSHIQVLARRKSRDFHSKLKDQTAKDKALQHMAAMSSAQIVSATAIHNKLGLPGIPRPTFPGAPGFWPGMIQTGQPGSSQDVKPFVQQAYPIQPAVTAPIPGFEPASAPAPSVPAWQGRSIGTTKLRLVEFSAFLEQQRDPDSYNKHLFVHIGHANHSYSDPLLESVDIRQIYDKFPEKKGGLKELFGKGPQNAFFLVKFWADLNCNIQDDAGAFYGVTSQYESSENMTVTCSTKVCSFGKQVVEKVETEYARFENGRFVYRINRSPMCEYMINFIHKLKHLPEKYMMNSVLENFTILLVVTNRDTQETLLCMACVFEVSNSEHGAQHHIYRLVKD

effect of a mutation on the interaction | Variant
with no effect | F133V

Variants of: B1
Conditions: with tead3_human TEAD3, Q99594

effect of a mutation on the interaction | Variant
with no effect | F133V

Variants of: B1
Conditions: with tead4_human TEAD4, Q15561

effect of a mutation on the interaction | Variant
with no effect | F133V

Variants of: B1
Conditions: with tgfr2_human TGFBR2, P37173

effect of a mutation on the interaction | Variant
with no effect | F133V

Variants of: B1
Conditions: with tnr14_human TNFRSF14, Q92956

effect of a mutation on the interaction | Variant
with no effect | F133V

Variants of: B1
Conditions: with tpx2_human TPX2, Q9ULW0
tpx2_human TPX2, Q9ULW0, sequence (Q9ULW0 whole entry): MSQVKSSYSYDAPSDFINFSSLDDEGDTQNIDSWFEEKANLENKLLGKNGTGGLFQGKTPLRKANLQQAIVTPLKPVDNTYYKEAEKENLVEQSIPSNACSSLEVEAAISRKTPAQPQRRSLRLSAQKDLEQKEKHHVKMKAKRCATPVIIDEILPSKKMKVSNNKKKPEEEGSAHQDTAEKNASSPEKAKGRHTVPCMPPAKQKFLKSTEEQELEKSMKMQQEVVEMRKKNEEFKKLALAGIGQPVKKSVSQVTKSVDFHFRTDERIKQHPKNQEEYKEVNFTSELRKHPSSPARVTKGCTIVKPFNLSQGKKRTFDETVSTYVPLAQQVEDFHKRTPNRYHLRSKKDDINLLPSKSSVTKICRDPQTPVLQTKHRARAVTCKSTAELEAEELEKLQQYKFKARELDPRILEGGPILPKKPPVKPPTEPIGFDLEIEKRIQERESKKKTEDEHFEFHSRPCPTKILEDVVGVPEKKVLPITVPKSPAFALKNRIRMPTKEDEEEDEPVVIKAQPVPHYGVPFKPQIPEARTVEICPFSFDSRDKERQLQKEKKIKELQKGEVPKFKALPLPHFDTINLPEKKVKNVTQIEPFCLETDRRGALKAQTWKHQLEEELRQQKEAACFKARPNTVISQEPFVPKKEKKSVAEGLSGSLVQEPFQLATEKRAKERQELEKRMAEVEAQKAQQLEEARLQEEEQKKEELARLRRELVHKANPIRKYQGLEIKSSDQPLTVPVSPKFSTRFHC

effect of a mutation on the interaction | Variant
with no effect | F133V

Variants of: B1
Conditions: with tsc2_human TSC2, P49815

effect of a mutation on the interaction | Variant
with no effect | F133V

Variants of: B1
Conditions: with tshr_human TSHR

effect of a mutation on the interaction | Variant
with no effect | F133V

Variants of: B1
Conditions: with vegfa_human VEGFA

effect of a mutation on the interaction | Variant
with no effect | F133V

Variants of: B1
Conditions: with vhl_human VHL

effect of a mutation on the interaction | Variant
with no effect | F133V

Variants of: B1
Conditions: with wee1_human WEE1, P30291

effect of a mutation on the interaction | Variant
with no effect | F133V

Variants of: B1
Conditions: with wwtr1_human WWTR1, Q9GZV5

effect of a mutation on the interaction | Variant
with no effect | F133V

Variants of: B1
Conditions: with xpo1_human XPO1, O14980
xpo1_human XPO1, O14980, sequence (O14980 whole entry): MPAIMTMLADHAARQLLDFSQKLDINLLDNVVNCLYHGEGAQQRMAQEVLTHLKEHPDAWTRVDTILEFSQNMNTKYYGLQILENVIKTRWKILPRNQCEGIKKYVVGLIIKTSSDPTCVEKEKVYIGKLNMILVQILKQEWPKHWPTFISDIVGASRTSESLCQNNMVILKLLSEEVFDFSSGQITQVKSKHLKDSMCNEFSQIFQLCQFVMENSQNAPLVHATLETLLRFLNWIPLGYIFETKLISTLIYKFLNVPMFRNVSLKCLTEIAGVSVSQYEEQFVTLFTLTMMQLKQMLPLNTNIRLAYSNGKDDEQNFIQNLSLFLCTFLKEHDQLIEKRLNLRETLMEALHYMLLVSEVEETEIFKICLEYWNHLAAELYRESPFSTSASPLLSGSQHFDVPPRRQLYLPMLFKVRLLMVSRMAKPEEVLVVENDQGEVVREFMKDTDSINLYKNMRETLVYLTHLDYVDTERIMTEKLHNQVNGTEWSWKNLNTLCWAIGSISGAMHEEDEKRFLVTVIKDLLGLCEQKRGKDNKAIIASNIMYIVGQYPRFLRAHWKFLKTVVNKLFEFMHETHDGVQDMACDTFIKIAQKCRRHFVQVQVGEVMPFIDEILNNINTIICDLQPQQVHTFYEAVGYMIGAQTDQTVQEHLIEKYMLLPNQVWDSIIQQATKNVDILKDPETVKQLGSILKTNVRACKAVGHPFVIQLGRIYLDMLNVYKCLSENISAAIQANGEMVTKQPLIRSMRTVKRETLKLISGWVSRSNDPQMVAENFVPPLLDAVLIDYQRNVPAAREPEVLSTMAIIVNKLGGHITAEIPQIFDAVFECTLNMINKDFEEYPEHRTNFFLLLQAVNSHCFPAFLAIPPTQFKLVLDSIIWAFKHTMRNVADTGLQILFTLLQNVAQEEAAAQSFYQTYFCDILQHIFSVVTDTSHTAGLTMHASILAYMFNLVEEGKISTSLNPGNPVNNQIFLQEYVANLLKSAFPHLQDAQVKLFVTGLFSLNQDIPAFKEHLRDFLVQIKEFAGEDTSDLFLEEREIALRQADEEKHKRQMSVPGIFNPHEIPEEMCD

effect of a mutation on the interaction | Variant
with no effect | F133V

Variants of: B1
Conditions: with cblb_human CBLB

effect of a mutation on the interaction | Variant
causing an interaction | F133V

Variants of: B1
Conditions: with jun_human JUN

effect of a mutation on the interaction | Variant
causing an interaction | F133V

Variants of: B1
Conditions: with kdm6a_human KDM6A

effect of a mutation on the interaction | Variant
causing an interaction | F133V

Variants of: B1
Conditions: with pax5_human PAX5, Q02548

effect of a mutation on the interaction | Variant
causing an interaction | F133V

Variants of: B1
Conditions: with PIK3C2B

effect of a mutation on the interaction | Variant
causing an interaction | F133V

Variants of: B1
Conditions: with e2f5_human E2F5, Q15329

effect of a mutation on the interaction | Variant
causing an interaction | F133V

Variants of: B1
Conditions: with cul3_human CUL3, Q13618

effect of a mutation on the interaction | Variant
increasing interaction strength | F133V

Variants of: B1
Conditions: with etv1_human ETV1, P50549
etv1_human ETV1, P50549, sequence (P50549 whole entry): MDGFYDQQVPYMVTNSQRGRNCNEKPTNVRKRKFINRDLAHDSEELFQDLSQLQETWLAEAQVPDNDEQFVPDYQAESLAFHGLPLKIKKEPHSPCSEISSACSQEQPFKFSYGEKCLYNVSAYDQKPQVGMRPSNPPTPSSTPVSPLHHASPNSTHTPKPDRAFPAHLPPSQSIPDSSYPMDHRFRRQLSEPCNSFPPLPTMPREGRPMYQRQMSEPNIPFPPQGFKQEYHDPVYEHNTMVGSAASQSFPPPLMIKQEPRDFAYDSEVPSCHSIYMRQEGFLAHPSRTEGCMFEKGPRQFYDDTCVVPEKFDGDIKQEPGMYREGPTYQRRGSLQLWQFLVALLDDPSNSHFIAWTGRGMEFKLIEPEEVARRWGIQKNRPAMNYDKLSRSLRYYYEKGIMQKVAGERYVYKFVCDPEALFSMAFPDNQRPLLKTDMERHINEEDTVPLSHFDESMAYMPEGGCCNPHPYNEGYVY

effect of a mutation on the interaction | Variant
decreasing interaction strength | F133V
